{"source": "patent US20240043507A1", "about": "(RQ BIOTECHNOLOGY, published 2024)", "binders": {"B1": {"name": "Fab of antibody 269 (Fab, V domains shown)", "VH": "QVQLVESGGGLIQPGGSLRLSCAASGLTVNRNYMSWIRQAPGKGLEWVSVIYSGGSTFYADSVKGRFTISRDNSKNTLSLQMNSLRAEDTAIYYCARDFYEGSFDIWGQGTMVTVSS", "VL": "AIQLTQSPSFLSASIGDRVTITCRASQGISSYLAWYQQKPGKAPKLLIYAASTLQSGVPSRFSGSGSGTEFTLTISSLQPEDFASYYCQQLNSYPAPVFGPGTKVDIK", "notes": "also called 269 Fab; COVOX-269"}, "B2": {"name": "Fab of antibody 175 (Fab, V domains shown)", "VH": "EVQLVESGGGLIQPGGSLRLSCAASGLTVSRNYMSWVRQAPGKGLEWVSLIYSGGSTYYADSVKGRFTISRDNSKNTLYLQMNSLRAEDTAVYYCARDLRGEVWGQGTMVTVSS", "VL": "not shown"}, "B3": {"name": "Fab 88, de-glycosylated (Fab, V domains shown)", "VH": "QLQLQESGPGLVKPSQTLSLTCTVSGGSISSGSYNWTWIRQPAGKGLEWIGRIYNSGSTNYNPSLKSRVTISVDTSKNQLSLKVRSVTAADTAVYYCARHCSGGTCYPKYYYGMDVWGQGTTVTVSS", "VL": "QSALTQPPSVSEAPRQRVTISCSGSSSNIGNNAVNWYQQFPGKAPKLLIYYDDLLPSGVSDRFSGSKSGTSASLAISGVQSEDEADYYCAAWDDSLNVVVFGGGTKLTVL"}, "B4": {"name": "Fab 88 (Fab, V domains shown)", "VH": "B3 VH", "VL": "B3 VL", "notes": "also called 88 Fab (glycosylated)"}, "B5": {"name": "Fab of antibody 318 (Fab, V domains shown)", "VH": "QVQLVQSGPEVKKPGTSVKVSCKASGFTLTSSAMQWVRQARGQRLEWIGWIVVGSGNTNYAQKFQERVTITRDMSTSTAYMELSSLRSEDTAVYYCAAGRGYNSDFDYWGQGTLVTVSS", "VL": "AIRMTQSPGTLSLSPGERATLSCRASQSVSSSYLAWYQQRPGQAPRLLIYGTSSRATGIPDRFSGSGSGTDFTLTISRLEPEDFAVYYCQQYGYSVYTFGQGTKVDIK"}, "B6": {"name": "Fab of antibody 316 (Fab, V domains shown)", "VH": "not shown", "VL": "QAVLTQPPSASGSPGQSVTISCTGTSSDVGGYNYVSWYQQHPGKAPKLMIYEVSKRPSGVPDRFSGSKSGNTASLTVSGLQAEDEADYYCSSYAGSNHWVFGGGTKLTVL", "notes": "also called 316 Fab; Fab 316"}, "B7": {"name": "Fab of antibody 398 (Fab, V domains shown)", "VH": "QVQLVESGGGLVQPGGSLRLSCAASGFTVSSNYMTWVRQAPGKGLEWVSVIYSGGSTYYADSVKGRFTISRDNSKNTLYLQMNSLRADDTAVYYCARDSTADYDFWSGYYVGAFHIWGQGTMVTVSS", "VL": "B6 VL with A2T, P8A, A10V, V18I, S54T, H98N"}, "B8": {"name": "Fab 316, de-glycosylated (Fab, V domains shown)", "VH": "not shown", "VL": "B6 VL"}, "B9": {"name": "Fab of antibody 281 (Fab, V domains shown)", "VH": "QVQLVESGGGLVQPGGSLRLSCAASGFPFSIYWMSWVRQAPGKGLEWVANIKQDGSEKYYVDSVKGRFTISRDNAKNSLYLHMNSLRGEDTAVYYCASRYYDFRPEAWFDYWGQGTLVTVSS", "VL": "not shown"}, "B10": {"name": "mAb 45 (antibody, V domains shown)", "VH": "QVQLVESGGGVVQPGRSLRLSCAASGFTFSTYAMHWVRQAPGKGLEWVAVLSYDGSNKYYADSVKGRFTISRDNSKNTLYLQMNSLRAEDTAVYYCAKGGSYAYYYYMDVWGKGTTVTVSS", "VL": "not shown", "notes": "also called antibody 45"}, "B11": {"name": "Fab of antibody 222 (Fab, V domains shown)", "VH": "EVQLVESGGGLIQPGGSLRLSCAASGLTVSSNYMSWVRQAPGKGLEWVSVIYSGGSTFYADSVKGRFTISRDNSKNTLYLQMNSLGAEDTAVYYCARGEGSPGNWFDPWGQGTLVTVSS", "VL": "DVVMTQSPGTLSLSPGERATLSCRASQSVPSSYLAWYQQKPGQAPRLLIYGASTRATGIPDRFSGSGSGTDFTLTISRLEPEDFAVYYCQHYDTSPRFGGGTKVDIK"}, "B12": {"name": "Fab 75 (Fab, V domains shown)", "VH": "QVQLVESGGGVVQPGRSLRLSCAASGFTFNNYPLHWVRQAPGKGPEWVAVISQDGGNKYYVDSVKGRFTISRDNSKNTLYLQMNNLRAEDTALYYCARDVVVVVAARNHYYNGMDVWGQGTTVTVSS", "VL": "DIQLTQSPSSVSASVGDRVTITCRASQGISSWLAWYQQKPGKAPKLLIYAVSSLQSGVPSRFSGSGSGTDFTLTISSLQPEDFATYYCQQAKSFPFTFGPGTKVEIK", "notes": "Fab"}, "B13": {"name": "Fab 75 (Fab, V domains shown)", "VH": "B12 VH", "VL": "B12 VL"}}, "key": {"[1]": {"target": "T1, SARS-CoV-2 receptor binding domain, native (501N) (SARS-CoV-2, UniProt P0DTC2 330-532)", "T1 construct": "range 330-532", "experiment": "BLI, RBD immobilised on AR2G biosensor, 1:1 fit"}, "[2]": {"target": "T2, SARS-CoV-2 receptor binding domain (RBD), native (SARS-CoV-2, UniProt P0DTC2 330-532)", "T2 construct": "range 330-532", "experiment": "BLI, RBD/Fab; de-glycosylated Fab 88"}, "[3]": {"target": "T2, SARS-CoV-2 receptor binding domain …", "experiment": "BLI, RBD/Fab; glycosylated Fab 88"}, "[4]": {"target": "T2, SARS-CoV-2 receptor binding domain …", "experiment": "BLI, RBD/Fab; de-glycosylated Fab 316"}, "[5]": {"target": "T2, SARS-CoV-2 receptor binding domain …", "experiment": "method and antigen not stated there"}, "[6]": {"target": "T2, SARS-CoV-2 receptor binding domain …", "experiment": "crystal structure"}, "[7]": {"target": "T3, SARS-CoV-2 spike receptor binding domain (RBD), His-tagged (SARS-CoV-2 (Wuhan-Hu-1 strain), UniProt P0DTC2 330-532)", "T3 construct": "range 330-532", "experiment": "X-ray crystal structure of the ternary complex RBD/Fab 253/Fab 75"}}, "note": "Positions count from the first letter of the chain named."}
{"binder": "B1", "values": [{"measurement": "Kd", "setting": "[1]", "value": 1.59, "unit": "nM"}]}
{"binder": "B2", "values": [{"measurement": "Kd", "setting": "[1]", "value": 0.97, "unit": "nM"}]}
{"binder": "B3", "values": [{"measurement": "Kd", "setting": "[2]", "value": 0.8, "unit": "nM"}]}
{"binder": "B4", "values": [{"measurement": "Kd", "setting": "[3]", "value": 1.2, "unit": "nM"}]}
{"binder": "B5", "values": [{"measurement": "Kd", "setting": "[1]", "value": 2.23, "unit": "nM"}]}
{"binder": "B6", "values": [{"measurement": "Kd", "setting": "[1]", "value": 1.5, "unit": "nM"}]}
{"binder": "B7", "values": [{"measurement": "Kd", "setting": "[1]", "value": 1.02, "unit": "nM"}]}
{"binder": "B8", "values": [{"measurement": "Kd", "setting": "[4]", "value": 1, "unit": "nM"}]}
{"binder": "B9", "values": [{"measurement": "Kd", "setting": "[1]", "value": 3.2, "unit": "nM"}]}
{"binder": "B10", "values": [{"measurement": "Kd", "setting": "[5]", "value": 0.018, "unit": "µg/mL"}]}
{"binder": "B11", "values": [{"measurement": "Kd", "setting": "[1]", "value": 0.29, "unit": "nM"}]}
{"binder": "B12", "values": [{"measurement": "binding result", "setting": "[6]", "value": "binds"}]}
{"binder": "B13", "values": [{"measurement": "binding result", "setting": "[7]", "value": "binds"}]}
